Measurements as given in PMC4460869.

Biological target: GST-tagged BmAPN4 (silkworm aminopeptidase N 4) (Bombyx mori)

trypsin-activated parasporal crystal toxin (PC) from Bacillus bombysepticus (domain or fragment)
proportion of viable BmAPN4-expressing Sf9 cells after PC, counted in 50 optical fields: 15.8% | release of total intracellular LDH from BmAPN4-transfected Sf9 cells into the medium after trypsin-activated PC, 6 h; untransfected Sf9 cells not affected: 35.3%
